79 sequences from the supplement of paper PMC10126150 can be followed below.

± gives the standard deviation of the averaged measurements.
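Further: ATP exposure 15 min at 22 °C before imaging.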

This data set has as its system ATP. The data set is described as follows: switch fluorescence ratio, 500 uM ATP over buffer (Cy3 cluster intensity, sum of 5 cycles each) (fold (ratio)); higher = stronger signal-on switching upon ATP binding; sequences stand for … in TCGTCGGCAGCGTCAGATGTGTATAAGAGACAGTTTTTTTTTTTTTTTTTTTTTTTTT…TC. The following applies: aptamer strand: ATP DNA aptamer (quencher-CACCTGGGGGAGTATTGCGGAGGAAGG + anchor), 100 nM annealed; ATP concentration: 500 uM. The procedure, abridged:
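For every switch-domain sequence, the fluorescence ratio is the mean of per-cluster values, each being summed target-cycle Cy3 intensity over summed buffer-cycle Cy3 intensity. Clusters outside 100-1000 RFU were excluded. On a modified Illumina MiSeq flow-cell, the Cy3-labelled switching-strand clusters were annealed to 100 nM quencher-labelled ATP aptamer, imaged in selection buffer and then after 15 min with 500 uM ATP at 22 °C. Five such cycles were run, with NaOH stripping and re-annealing between them.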
For the sequence AGGTTTTTCA, the switch fluorescence ratio was determined as 0.983 ± 0.017.

Turning to TTATTATGTG, the switch fluorescence ratio amounted to 0.946 ± 0.022.

As to TAAAAAACCG, the switch fluorescence ratio was 1.03 ± 0.025.

Regarding GGGAGTACGT, the switch fluorescence ratio stood at 1 ± 0.019.

On to TGTCGGTGGG, for which the switch fluorescence ratio came out at 0.992 ± 0.016.

On to GCGTGGGTTG, for which the switch fluorescence ratio worked out at 0.998 ± 0.048.

TCGGTCGACG: the switch fluorescence ratio amounted to 0.962 ± 0.027.

For GGGCGTGGTT, the switch fluorescence ratio came out at 0.965 ± 0.017.

On to CGTTGGGGCG, for which the switch fluorescence ratio turned out to be 0.931 ± 0.035.

For TTAGACGTTC, the switch fluorescence ratio turned out to be 0.99809 ± 0.00032.

Turning to ATGAATCGTC, the switch fluorescence ratio turned out to be 0.9927 ± 0.0037.

CTGCAAGGGT: the switch fluorescence ratio was found to be 1.214 ± 0.011.

For the sequence AATCGGGCAG, the switch fluorescence ratio came out at 1.04 ± 0.021.

Take TGTATCTCTG: the switch fluorescence ratio is 1.02 ± 0.02.

Turning to CCGTAATCAG, the switch fluorescence ratio turned out to be 1.98 ± 0.14.

On to AGGGGGAGTC, for which the switch fluorescence ratio was 1.02 ± 0.053.

For AACGTGGGTA, the switch fluorescence ratio was found to be 1.01 ± 0.026.

With GTTGTTGCTT, the switch fluorescence ratio was determined as 0.982 ± 0.029.

On to CTTGTTGTAT, for which the switch fluorescence ratio was 1.01 ± 0.02.

Take GTGTATTAGT: the switch fluorescence ratio stood at 0.9656 ± 0.003.

Turning to AATTTGCAGT, the switch fluorescence ratio was 1.004 ± 0.0043.

As to GTCGAGGATG, the switch fluorescence ratio was found to be 1.018 ± 0.0049.

Consider TTATTGGGGT, for which the switch fluorescence ratio worked out at 1.01 ± 0.013.

On to GCAAAATAAA, for which the switch fluorescence ratio was determined as 1.05 ± 0.12.

Regarding AGTGCAACTG, the switch fluorescence ratio amounted to 1.01 ± 0.03.

Consider TTATTTTTT, for which the switch fluorescence ratio amounted to 1.02 ± 0.018.

On to AATATGATGT, for which the switch fluorescence ratio was 1.05 ± 0.04.

As to TTTGTTGTAC, the switch fluorescence ratio came out at 1.06 ± 0.058.

Regarding CGGAGGACCA, the switch fluorescence ratio was 0.978 ± 0.023.

As to GGAAAAAGTG, the switch fluorescence ratio came to 0.991 ± 0.014.

Regarding CCGGTGTTTT, the switch fluorescence ratio is 1.06 ± 0.041.

On to TATACCGGTA, for which the switch fluorescence ratio was found to be 1.022 ± 0.0067.

As to AGTTAGGAGT, the switch fluorescence ratio was 0.9895 ± 0.0087.

As to ATTGACGATC, the switch fluorescence ratio amounted to 0.994 ± 0.016.

Regarding TCGCTGGTTG, the switch fluorescence ratio amounted to 0.996 ± 0.022.

In the case of TAGGGGAGGC, the switch fluorescence ratio was 0.984 ± 0.016.

TATTAGACTA: the switch fluorescence ratio is 1.02 ± 0.022.

In the case of GGAGAGATTT, the switch fluorescence ratio worked out at 1.01 ± 0.034.

In the case of GCGGGTACTG, the switch fluorescence ratio is 1.001 ± 0.0052.

For the sequence AGTAAAGTGC, the switch fluorescence ratio was 1.03 ± 0.045.

With TAAAAGGTAC, the switch fluorescence ratio amounted to 1.07 ± 0.07.

For AGTCGTCTTG, the switch fluorescence ratio stood at 0.977 ± 0.026.

Turning to ACGGTGTATG, the switch fluorescence ratio worked out at 0.989 ± 0.031.

Turning to TCAGGGCATG, the switch fluorescence ratio was determined as 1.04 ± 0.043.

Take GGGATTGAAT: the switch fluorescence ratio came to 1.01 ± 0.032.

For the sequence TGAAGTTTAC, the switch fluorescence ratio came to 2.03 ± 1.4.

As to TTAGCAAATA, the switch fluorescence ratio amounted to 1.155 ± 0.0099.

Consider GATTTGGGGT, for which the switch fluorescence ratio was found to be 1 ± 0.033.

For TTTTTGTGGG, the switch fluorescence ratio was 0.993 ± 0.023.

CATAGGGACG: the switch fluorescence ratio is 0.989 ± 0.083.

Regarding TAGCGGGTAC, the switch fluorescence ratio came to 1.28 ± 0.087.

For TCGTAGTTGC, the switch fluorescence ratio is 1.24 ± 0.027.

With TTGAGGGGGG, the switch fluorescence ratio turned out to be 1.01 ± 0.048.

For the sequence TCTGTGGCTG, the switch fluorescence ratio turned out to be 1.05 ± 0.1.

For AGGCTTAGAC, the switch fluorescence ratio worked out at 1.04 ± 0.032.

In the case of GGGGAAAAGG, the switch fluorescence ratio came out at 1 ± 0.017.

Turning to GAAGGGGACG, the switch fluorescence ratio amounted to 1.006 ± 0.0085.

For CCGGGCCAGC, the switch fluorescence ratio was 1.47 ± 0.063.

As for CTAGGTTCTG, the switch fluorescence ratio is 1.015 ± 0.0043.

As to AGGAAATGTT, the switch fluorescence ratio was determined as 1 ± 0.051.

As to CTAGCACGGA, the switch fluorescence ratio stood at 0.9713 ± 0.0093.

For CATTTTTTGT, the switch fluorescence ratio is 1.027 ± 0.0052.

Regarding TAGGGAAAAC, the switch fluorescence ratio is 1.05 ± 0.12.

With AATAAGATGT, the switch fluorescence ratio was determined as 0.999 ± 0.066.

For GGGGCTCAGA, the switch fluorescence ratio was 0.993 ± 0.011.

For the sequence TTAAGGTTGC, the switch fluorescence ratio is 0.989 ± 0.019.

As for CGGACTAGTT, the switch fluorescence ratio turned out to be 0.994 ± 0.022.

Consider GGTATCGCGG, for which the switch fluorescence ratio amounted to 1 ± 0.023.

Take TGTTGGGACG: the switch fluorescence ratio was determined as 1.1 ± 0.039.

As for GAATGGTATA, the switch fluorescence ratio amounted to 0.9925 ± 0.0035.

As to GCGGGGACGC, the switch fluorescence ratio came out at 0.9982 ± 0.0021.

As to ATGGTGCGGA, the switch fluorescence ratio was 0.956 ± 0.06.

For ACTTGGGAAT, the switch fluorescence ratio is 1.03 ± 0.02.

TCGGGAGTGG: the switch fluorescence ratio came out at 0.9905 ± 0.0016.

On to TTTAGGACGC, for which the switch fluorescence ratio stood at 1.02 ± 0.022.

As for CTGATTACGC, the switch fluorescence ratio was determined as 1.37 ± 0.016.

Take GTGAGCGACG: the switch fluorescence ratio worked out at 0.965 ± 0.027.

For TGGTTAGGG, the switch fluorescence ratio stood at 0.988 ± 0.019.

For AAATGAGTGT, the switch fluorescence ratio is 0.975 ± 0.026.
